According to patent US20220298231A1 (AC IMMUNE, published 2022):
Numbering of substitutions follows the chain as printed. Blank lines part the entries; values can stand above or below the binder they belong to. Where no end group is shown, it is not given here. The star is where a group is joined. Biotin = O=C1N[C@H]2[C@H](CS[C@H]2CCCCC(=O)*)N1; Ahx = NCCCCCC(=O)O

How the values were obtained:
82-96aa [1] = target: T1, 82-96aa; assay: indirect ELISA on biotinylated 15-mer peptide (streptavidin plate), supernatant 1/100
T1 construct: also called alpha-synuclein peptide 82-96
T1 peptide: {Biotin-Ahx}-VEGAGSIAAATGFVK
Method: (§1) Epitope mapping for the antibodies derived from stable hybridoma clones was determined using an indirect ELISA on a library of 15-mer peptides covering the entire sequence of human alpha-synuclein from 1 to 140aa. […] Results are expressed as optical density (O.D.). Each bar represents data for an individual antibody.
(§2) Serum-free supernatants were harvested from stable hybridomas. The supernatants containing antibodies of interest were then screened by an indirect ELISA assay to determine epitopes. Epitopes were first determined using a library of 15-mer peptides covering the entire sequence of human alpha-synuclein protein, spanning amino acids (aa) 1-140 with 9aa offset and 6aa overlap. […] Briefly, streptavidin-coated ELISA plates were blocked overnight at 4° C. […] Plates were washed with PBS/0.05% Tween® 20 and then incubated with the hybridoma supernatants at 1/100 dilution for 1 hour at 25° C. […] After final wash, plates were incubated 2 hours at 25° C. with alkaline phosphatase substrate (p-nitrophenyl phosphate disodium hexahydrate; pNPP, S0942, Sigma) and read the absorbance optical density (O.D.) signal at 405 nm using an ELISA plate reader (Tecan, Switzerland).

1-15aa [2] = target: T2, 1-15aa; assay: 15-mer peptide ELISA
T2 construct: also called alpha-synuclein peptide 1-15
T2 peptide: {Biotin-Ahx}-MDVFMKGLSKAKEGV
Method: as §1, §2

37-51aa [3] = target: T3, 37-51aa; assay: 15-mer peptide ELISA
T3 construct: also called alpha-synuclein peptide 37-51
T3 peptide: {Biotin-Ahx}-VLYVGSKTKEGVVHG
Method: as §1, §2

alpha-synuclein fibrils = alpha-synuclein fibrils (Homo sapiens (Human), UniProt P37840 1-140); assay: cell-based or functional assay
82-96aa [4] = target: T1, 82-96aa; assay: 15-mer peptide ELISA
Method: as §1, §2

1-15aa [5] = target: T2, 1-15aa; assay: indirect ELISA on biotinylated 15-mer peptide (streptavidin plate), supernatant 1/100
Method: as §1, §2

91-105aa [6] = target: T4, 91-105aa; assay: 15-mer peptide ELISA
T4 construct: also called alpha-synuclein peptide 91-105
T4 peptide: {Biotin-Ahx}-ATGFVKKDQLGKNEE
Method: as §1, §2

100-114aa [7] = target: T5, 100-114aa; assay: indirect ELISA on biotinylated 15-mer peptide (streptavidin plate), supernatant 1/100
T5 peptide: {Biotin-Ahx}-LGKNEEGAPQEGILE
Method: as §1, §2

109-123aa [8] = target: T6, 109-123aa; assay: 15-mer peptide ELISA;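 further: indirect ELISA of hybridoma supernatant antibodies (1/100, 1 h) binding immobilized 15-mer peptides spanning human alpha-synuclein 1-140 on streptavidin plates, read as optical density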
T6 peptide: {Biotin-Ahx}-QEGILEDMPVDPDNE
Method: as §1, §2

82-96aa [9] = target: T1, 82-96aa; assay: 15-mer peptide ELISA
Method: as §1, §2

91-105aa [10] = target: T4, 91-105aa; assay: 15-mer peptide ELISA
Method: as §1, §2

37-51aa [11] = target: T3, 37-51aa; assay: indirect ELISA on biotinylated 15-mer peptide (streptavidin plate), supernatant 1/100
Method: as §1, §2

91-105aa [12] = target: T4, 91-105aa; assay: as above
Method: as §1, §2

109-123aa [13] = target: T6, 109-123aa; assay: as above
Method: as §1, §2

100-114aa [14] = target: T5, 100-114aa; assay: 15-mer peptide ELISA;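 further: indirect ELISA of hybridoma supernatant antibodies (1/100, 1 h) binding immobilized 15-mer peptides spanning human alpha-synuclein 1-140 on streptavidin plates, read as optical density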
Method: as §1, §2

binding result (82-96aa [4]): no binding (tested: supernatant 1/100)
binding result (37-51aa [3]): no binding (tested: supernatant 1/100)
binding result (1-15aa [5]): binds
B4: ACI-7088-4303A1-Ab1 (antibody, V domains shown)
VH: EVQLQQSGAELVRPGASVKLSCTASGFNIKDDYMHWVKQRPEQGLEWIGWIDPENGDSEYASKFQGKATMTADTSSNTAYLQLSSLTSEDTAVYYCKTWGTAQALFPYWGQGTLVTVSA
VL: DIVMTQSQKFMSTSVGDRVSITCKASQNVGTSVGWYQQKAGQSPKLLIHSASNRYTGVPDRFTGSGSGTDFTLTINNMQSEDLADYFCQQYRSYPLTFGAGTKLELK
notes: mouse hybridoma mAb; also called 4303A1E7

binding result (82-96aa [4]): no binding (tested: supernatant 1/100)
binding result (91-105aa [6]): no binding (tested: supernatant 1/100)
binding result (37-51aa [3]): no binding (tested: supernatant 1/100)
binding result (1-15aa [5]): binds
B5: ACI-7088-4317A4-Ab1 (antibody, V domains shown)
VH: B4 VH with S58T, A102T
VL: B4 VL with S12Y, T31N, S32A, S65T
notes: mouse hybridoma mAb; also called 4317A4D2

binding result (82-96aa [4]): no binding (tested: supernatant 1/100)
binding result (91-105aa [6]): no binding (tested: supernatant 1/100)
binding result (1-15aa [2]): no binding (tested: supernatant 1/100)
binding result (37-51aa [11]): binds
B8: ACI-7088-4303A3-Ab1 (antibody, V domains shown)
VH: QVQLQQSGAELVRPGASVTLSCKASGYTFTDYEMHWVKQTPVHGLEWIGVIDPETGGAVQNQKFKGKAILTADNSSSTAYMDLRSLTSEDSAVYNCAMGAALRLAYWGQGTLVTVSS
VL: DVLMTQTPLSLPVSLGDQASISCRSSQSIVHSNGNSYLEWYLQKPGQSPKLLIYKVSNRFSGVPDRFSGSGSGTDFTLKINRVEAEDLGVYYCFQGSHVPFTFGSGTKLEIK
notes: mouse hybridoma mAb; also called 4303A3E4

binding result (109-123aa [13]): binds
binding result (82-96aa [9]): no binding (tested: supernatant 1/100)
binding result (91-105aa [10]): no binding (tested: supernatant 1/100)
binding result (100-114aa [14]): no binding (tested: supernatant 1/100)
B14: ACI-8033-19A2-Ab1 (antibody, V domains shown)
VH: EVQLVESGGGLVQPKGSLKLSCAASGFSFNTYAMNWVRQAPGKGLEWVARIRSKSNNYATYYVDSVKDRFTISRDDSESMLYLQMNNLKTEDTALYYCVSESAYWGQGTLVTVSA
VL: B8 VL with L3V, I29L, S36T, E39Y, F60L, N81S, Y92F, F94S, G96S, S97T
notes: mouse hybridoma mAb; also called 917.19A2E9E5

binding result (109-123aa [13]): binds
binding result (82-96aa [9]): no binding (tested: supernatant 1/100)
binding result (91-105aa [10]): no binding (tested: supernatant 1/100)
B15: ACI-8033-1G10-Ab1 (antibody, V domains shown)
VH: DVQLQESGPGLVKPSQTVFLTCTVTGISITTGNYRWSWIRQFPGNKLEWIGYIYYSGTITYNPSLTSRTTITRDTPKNQFFLEMNSLTAEDTATYYCARIYYGNAMDYWGQGTSVTVSS
VL: DVVMTQTPLSLPVSLGDQASISCRSSQSLVHSNGNTYLHWYLQKPGQSPKLLIYKVSNRFSGVPDRFSGSGSGTDFTLKISRVEAEDLGVYFCSQSTHVPHTFGGGTKLEIK
notes: mouse hybridoma mAb; also called 917.1G10A10F6

binding result (109-123aa [13]): binds
binding result (82-96aa [9]): no binding (tested: supernatant 1/100)
binding result (91-105aa [10]): no binding (tested: supernatant 1/100)
binding result (100-114aa [14]): no binding (tested: supernatant 1/100)
B16: ACI-8033-1A12-Ab1 (antibody, V domains shown)
VH: QVHLKQSGADLVRPGASVKLSCKASGYSFTDFYINWVKQTPGQGLEWIARIYPGNNNTFYNEKFKGKATLSAEKSSTTAYMQLSSLTSEDSAVYFCVVGYYGAWGQGTTLTVSS
VL: B15 VL with Y37H, V90F, H101W
notes: mouse hybridoma mAb; also called 917.1A12C1B4

Second part, the binder before the results:

B1: ACI-7089-4418C5-Ab1 (antibody, V domains shown)
VH: DGQLQESGPGLVKPSQSLSLTCSVTGYSITSGYYWNWIRQFPGNKLEWMGYINYDGSNNYNPSLKNRISITRDTSKNQFFLKFNFVTTEDTATYYCVRGDVYWGQGTTLTVSS
VL: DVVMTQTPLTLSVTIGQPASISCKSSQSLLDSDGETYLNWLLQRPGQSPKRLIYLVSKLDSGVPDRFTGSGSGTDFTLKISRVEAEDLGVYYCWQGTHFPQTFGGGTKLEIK
notes: mouse hybridoma mAb; also called 4418C5G1
binding result (82-96aa [1]): binds

B2: ACI-7089-4409F1-Ab1 (antibody, V domains shown)
VH: DVQLQESGPGLVKPSQSLSLTCSVTGYSITRGYYWNWIRQFPGNKLEWMGYISYDGSNNYNPSLRNRISITRDTSKNQFFLKLKSVTTEDTATYFCARGDSNWGQGTTLTVSA
VL: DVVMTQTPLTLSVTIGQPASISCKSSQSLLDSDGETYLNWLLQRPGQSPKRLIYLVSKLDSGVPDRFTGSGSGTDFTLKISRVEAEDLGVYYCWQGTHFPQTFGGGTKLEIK
notes: mouse hybridoma mAb; also called 4409F1A8
binding result (82-96aa [1]): binds
binding result (1-15aa [2]): no binding (tested: supernatant 1/100)
binding result (37-51aa [3]): no binding (tested: supernatant 1/100)

B3: ACI-7067-1113D10-Ab1 (antibody, V domains shown)
VH: EVQLVESGGGLVQPKGSLKLSCAASGFTFNTYALHWVRQAPGKGLEWVARIRSKSSNYATYYADSVKDRFTISRDDSQSMLYLQMNNLKTEDTGMYYCVRGGVSPFDYWGQGTTLTVSS
VL: QIVLTQSPAIMSASPGEKVTMTCSASSSVSYMHWYQQKSGTSPKRWIYDTSKLASGVPARFSGSGSGTSYSLTISSMEAEDSATYYCQQWSNNPPTFGGGTKLEIK
IC50, de novo alpha-synuclein aggregates formed in seeded mouse primary cortical neurons (alpha-synuclein fibrils): 702 nM
IC50, de novo alpha-synuclein aggregates formed in the seeded in vitro cellular model (alpha-synuclein fibrils): 39.6 nM

B6: ACI-7067-1101C8-Ab2 (antibody, V domains shown)
VH: EVQLVESGGGLVQPKGSLKLSCAASGFSFNIYAMNWVRQAPGKGLEWVARIRSKSNNYATYYADSVKDRFTISRADSESMLYLQMNNLKTEDTAMYYCVRVGLRFYAMDYWGQGTSVTVSS
VL: B8 VL with S36T, N81S, H98Q, V99G, F101L, S105A, I111L
IC50, de novo alpha-synuclein aggregates formed in seeded mouse primary cortical neurons (alpha-synuclein fibrils): 114 nM
IC50, de novo alpha-synuclein aggregates formed in the seeded in vitro cellular model (alpha-synuclein fibrils): 3.3 nM

B7: ACI-8033-18C11-Ab1 (antibody, V domains shown)
VH: QVQLQQPGAELVKPGASVKMSCKAAGYTFSSYWITWVRQRPGQGLDWIGDIYPGGGVTNYNEKFKTKATLTVDTSSSTAYMQLSSLTSEDSAVYYCATAQTTFAYWGQGTLVTVSA
VL: B8 VL with S28N, S32N, S36T, N81S, F101R, S105G
notes: mouse hybridoma mAb; also called 917.18C11A11F10
binding result (100-114aa [7]): binds
binding result (109-123aa [8]): no binding (tested: supernatant 1/100)
binding result (82-96aa [9]): no binding (tested: supernatant 1/100)
binding result (91-105aa [10]): no binding (tested: supernatant 1/100)

B9: ACI-8033-18D12-Ab1 (antibody, V domains shown)
VH: B7 VH with A25S, S30T, Q82H, Y95F, Y105H
VL: B8 VL with S28N, V30A, S32N, S36T, N81S, F101R, S105G
notes: mouse hybridoma mAb; also called 917.18D12F10D6
binding result (100-114aa [7]): binds
binding result (109-123aa [8]): no binding (tested: supernatant 1/100)
binding result (82-96aa [9]): no binding (tested: supernatant 1/100)
binding result (91-105aa [10]): no binding (tested: supernatant 1/100)

B10: ACI-7067-1108B11-Ab2 (antibody, V domains shown)
VH: EVQLVESGGGLVQPKGSLKLSCAASGFTFNTYAMHWVRQAPGKGLEWVARIRSKGSNYATNYADSVKDRFTISRDDSQSMLYLQMNNLKTEDTAMYYCVRGHGSSYFSYWGQGTLVTVSA
VL: QIVLTQSPAIMSASPGERITMTCSANSSVTYMHWYQQKSGTSPKRWIYDTSNLASGVPARFSGSGSGTSYSLTISSMEAEDAATYYCQQWKSHPPTFGAGTKLELK
IC50, de novo alpha-synuclein aggregates formed in seeded mouse primary cortical neurons (alpha-synuclein fibrils): 143 nM
IC50, de novo alpha-synuclein aggregates formed in the seeded in vitro cellular model (alpha-synuclein fibrils): 4.5 nM

B11: ACI-7089-4418F6-Ab1 (antibody, V domains shown)
VH: QVQLQQSGAELARPGASVKVSCKASGYTFTSSGISWLKHRTGQGLEWIGDIYPRSGNTYYNEKFKDKATLTADKSSSTAYMELRSLTSEDSAVYFCSSGNYWGQGTTLTVSS
VL: DIVITQDDLSNPVTSGESVSISCRSSKSLLYKDGKTYLNWFLQRPGQSPQLLIYLMSTRASGVSDRFSGSGSGTDFTLEISRVKAEDVGVYYCQQLLEYPLTFGAGTKLELK
notes: mouse hybridoma mAb; also called 4418F6G7
binding result (82-96aa [1]): binds
binding result (91-105aa [6]): no binding (tested: supernatant 1/100)
binding result (1-15aa [2]): no binding (tested: supernatant 1/100)
binding result (37-51aa [3]): no binding (tested: supernatant 1/100)

B12: ACI-7088-4301H3-Ab2 (antibody, V domains shown)
VH: EVQLQQSGPELVKPGASVKISCKASGYTFADYFMNWVKQSHGKSLEWIGDINPNNGGTTYNQKFKGKATLTVDKSSNTAYMELRSLTSEDSAVYYCARGRNYAMDYWGQGTSVTVSS
VL: DIVMSQSPSSLAVSAGEKVTMSCKSSQSLLNSRTRKNYLAWYQQKPGQSPKLLIYSASTRESGVPDRFTGSGFGTDFTLTISSVQAEDLAVYYCKQSYDLWTFGGGTKLEIK
notes: mouse hybridoma mAb; also called 4301H3A5
binding result (91-105aa [12]): binds
binding result (82-96aa [4]): no binding (tested: supernatant 1/100)
binding result (1-15aa [2]): no binding (tested: supernatant 1/100)
binding result (37-51aa [3]): no binding (tested: supernatant 1/100)

B13: ACI-8033-5A12-Ab1 (antibody, V domains shown)
VH: B16 VH with S28T, F32Y, T40R, N55S, N56G, F59Y, K67R
VL: B15 VL with N35K, Y37H, H101W
notes: mouse hybridoma mAb; also called 917.5A12A11C9
binding result (109-123aa [13]): binds
binding result (100-114aa [7]): binds
binding result (82-96aa [9]): no binding (tested: supernatant 1/100)
binding result (91-105aa [10]): no binding (tested: supernatant 1/100)
